According to WO2018007922A2 (dated 2018):

Target: recombinant human TTR F87M/L110M (human, UniProt P02766 21-147)
Assay: Biacore SPR, mAb captured on anti-human chip, TTR F87M/L110M as analyte

Kd: 2.09 nM
B1: Hu9D5 H4L1 (antibody, V domains shown)
VH: EVQLVESGGGLVQPGGSLRLSCAASGFTFSSYTMSWVRQAPGKGLEWVSEISNSGDTTYYPDTVKGRFTISRDNAKNSLYLQSNLLRAEDTAVYYCARHYYYGGGYGGWFFDVWGQGTTVTVSS
VL: DIVMTQSPLSLPVTPGEPASISCRSSKSLLHSNGNTYLYWFLQKPGQSPQLLIYRVSNLASGVPDRFSGSGSGTDFTLKISRVEAEDVGVYYCMQHLEYPLTFGQGTKLEIK
notes: not tied by words to the tested antibody; also called humanized 9D5 VHv4/VLv1
